Target: T1, His6-MytA (C. glutamicum, UniProt P0C1D6 44-657)
T1 sequence (looked up): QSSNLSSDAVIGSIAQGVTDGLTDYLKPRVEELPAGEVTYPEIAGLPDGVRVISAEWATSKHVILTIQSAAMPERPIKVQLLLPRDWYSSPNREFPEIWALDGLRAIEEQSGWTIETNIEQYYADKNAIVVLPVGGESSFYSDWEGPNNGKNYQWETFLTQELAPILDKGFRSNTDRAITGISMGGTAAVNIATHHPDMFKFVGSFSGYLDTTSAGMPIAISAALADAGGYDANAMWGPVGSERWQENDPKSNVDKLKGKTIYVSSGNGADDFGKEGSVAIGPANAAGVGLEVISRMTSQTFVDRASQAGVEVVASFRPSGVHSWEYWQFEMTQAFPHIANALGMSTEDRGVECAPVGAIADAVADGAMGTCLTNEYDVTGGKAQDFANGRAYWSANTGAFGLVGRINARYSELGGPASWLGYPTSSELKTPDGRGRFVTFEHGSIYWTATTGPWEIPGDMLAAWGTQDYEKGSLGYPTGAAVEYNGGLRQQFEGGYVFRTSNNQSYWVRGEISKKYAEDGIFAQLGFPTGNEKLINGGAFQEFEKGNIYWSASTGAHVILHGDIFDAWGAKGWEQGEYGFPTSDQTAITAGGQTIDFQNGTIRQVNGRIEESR
Assay: cell-based or functional assay

B1: GST-Cgl2215 (natural protein, C. glutamicum, UniProt Q8NNI6 1-71, looked up)
chain: MNHKLFGSKQFRKEKEMGLRIRPNEMKVWETFTLERQLEVIINADHLLLFRGEPHGTVSLSDVVASELIGI
In the case of B1, the “in vitro esterase activity of MytA (release of p-NP from p-NPP; MytA 4.7 μM) with GST-Cgl2215 at a 1:1 ratio of GST-Cgl2215:MytA and higher ratios (further increased)” value is reported as 1.6 fold.

From publication PMC10441969, “Small protein Cgl2215 enhances phenolic tolerance by promoting MytA activity in Corynebacterium glutamicum” (Stress Biology, 2022)
